Assay: label from the status in PepcDB records

Sequence	protein production
MNITKAFCLSIALLGASNMQAITNSDFVIQQDNTKINNYQTNRPETSKRLFVSQAVEQQIAHIKQLLTNARLAWMFENCFPNTLDTTVHFDGKDDTFVYTGDIHAMWLRDSGAQVWPYVQLANKDAELKKMLAGVIKRQFKCINIDPYANAFNMNSEGGEWMSDLTDMKPELHERKWEIDSLCYPIRLAYHYWKTTGDASIFSDEWLTAIAKVLKTFKEQQRKEDPKGPYRFQRKTERALDTMTNDGWGNPVKPVGLIASAFRPSDDATTFQFLVPSNFFAVTSLRKAAEILNTVNKKPDLAKECTTLSNEVETALKKYAVYNHPKYGKIYAFEVDGFGNQLLMDDANVPSLIALPYLGDVKVNDPIYQNTRKFVWSEDNPYFFKGTAGEGIGGPHIGYDMIWPMSIMMKAFTSQNDAEIKTCIKMLMDTDAGTGFMHESFHKNDPKNFTRSWFAWQNTLFGELILKLVNEGKVDLLNSIQLEHHHHHH	failed
MNITLAVLQLEDIPQAKQFAIRTRQLLFPDVYQLALPYDLTHFQDVYLHDQKGACFVVKDQQHNIIGMIAYRAYNHRFALDIPKDSVEVVKLFIQPEYRRQGLASRLCEALFGYAAQQKIKYFYLHTHPFLPAAEYFWTKQGFDVIHREEIQNYDTIHMFKSA	failed
MNIVKLMVIIIYLIIGSALGIIIIPEIANDLGLQNSSFLKNHYVDGIIGSIFMFLIFGVFIRRVTNAIKGLEHFIMRRSAVEILFATIGLIIGLLISVMVSFILESIGNSIFNHFIPVIITILLCYFGFQFGLKKRDEMLMFLPENIARSMSQHTKSATPKIIDTSAIIDGRILEVIRCGFIDGNILIPQGVINELQIVADSNDSVKREKGKRGLDILNELYDLDYPTKVIHPTKTHSDIDTMLLKLAKQYHASIITTDFNLNKVCHVHGIKALNVNDLSEAIKPNVHQGDQLHILLTKMGKEPGQAVGYLDDGTMVVVDNAKNLIGSHVNLEVVSLLQTSSGRIVFAKKIEDTVSLLEHHHHHH	failed
MNKDLKAIKWFITTQILKDPFNPAYATFKVTSRCNLRCTFCSPSYYSGELGEGSTERVKKIIDNLRDSSIVVLSFEGGEPTYRPDILDLLEYAHDGSFYIMLTTNGYRLKDEDFLTKLADKIDFLHYSIDEYHWNVKELENLCRFRKYGLKVNVQTVVTRYNLYKLEEKVRKVAECGYKILAMPAVDYPNSKVKLAPDPYEFYKVLYDLKRKYGSTLNNSWGFINAIIGKVPKRVVSYAITIYPNGDLPYPDDINGEIVGNVAEEPLNKILQSSKVKELQQKMLENQAKFEYLHLQTASFNNIRDLASYVSEMLRWRFTGRA	failed
MNKEMTLLPPPELVQYVGGDFKKVGKEFLKHFIQIGALKSNEKVLDVGCGVGRMAVPLMNYLNDDGAYYGFDLFKDGITWCQNNISTMRNNFHFEHVDIYNQFYNPEGKEDASQYRFPYEDGTFDFIFLTSVFTHLLPKELEHYVSEIVRVLKKDGRCFITFFLINPESSYYLNAGQSTLGFYHRIENCYVVNKDIPNFAVAYPETDICNLLNKYGLEIINKPHYGLWCGRHEYTSYQDIVLTKKSLEHHHHHH	failed
MNKERGMKGTCLCGAIEVIAEPKNEVSLCHCSMCRKWSSGALHAVHCGPEVTFKGAEPKRYQSSDWAVRGFCGECGTNLFYHLLPTNEYILSAGLFDNPDFKLTLEIFTDEKPGYYELNPHSKKMTAQEVYDQFVPKE	failed
MNKFELYHPILTEHFALDWLTHSKVRDIFELRHDPEIAKASDRDIDATIEDTTTYVNQMMRLVMNNEALIWGITDQNTHEFLGTFCIWDFDQAQKSASVRFEILRNQQHKGIMSEVLRRMSIFSFEELGLEKLFATALKNNTIARTLLEQVGFSAVASQTDNQNITLELNRH	failed
MNKFGAEKIFIEKQSGATITHRPIFQEALDFVRAQDIFIVEAIDRLGRNYDEIIDSVNYLKKKNVRLIITSLPIMAEAIGNPLLDKFIKDLIIQILAMIAEQERTESKRRQAQGIKIAKANGVYKGRPKLYSADTKDPQRRLVYKSIVQDLKNGVAISKIAKDYNITRQTIYRIKKEIHELEIN	failed
MNKFLTTIIIKSKCSLLFISSINDSFIYIIRRMINANWSNFTLSWSIARNYWYYFRKCLDGRPFTVFLTSYQIFSTSFCKGNMFYVISSLIIFIQIMNCFLEHHHHHH	failed
MNKHASQPRAIYYVVALQIWEYFSFYGMRALLILYLTNQLKYNDTHAYELFSAYCSLVYVTPILGGFLADKVLGNRMAVMLGALLMAIGHVVLGASEIHPSFLYLSLAIIVCGYGLFKSNVSCLLGELYEPTDPRRDGGFSLMYAAGNVGSIIAPIACGYAQEEYSWAMGFGLAAVGMIAGLVIFLCGNRHFTHTRGVNKKVLRATNFLLPNWGWLLVLLVATPALITILFWKEWSVYALIVATIIGLGVLAKIYRKAENQKQRKELGLIVTLTFFSMLFWAFAQQGGSSISLYIDRFVNRDMFGYTVPTAMFQSINAFAVMLCGVFLAWVVKESVAGNRTVRIWGKFALGLGLMSAGFCILTLSARWSAMYGHSSLPLMVLGLAVMGFAELFIDPVAMSQITRIEIPGVTGVLTGIYMLLSGAIANYLAGVIADQTSQASFDASGAINYSINAYIEVFDQITWGALACVGLVLMIWLYQALKFRNRALALES	failed
MNKKKIKKLIKSALATTCAVSVITTTSVTAFASNSGENSKEEESNKRVEAEVYPVPQSLEHSSIEGMTLEGEVNIVYHGEQEAATSKRLERTLNENNIAFKVSENVEEGKANIIVSSEGDHCDVCSEGKEENSDVLTHKEGYVLKTSNDINEKGNISIIGSDKDGAYYGVLTLSQILEQSNEENKFAEVVVTDYPEIEFRGFIEGFYGVPWSHEDRMNLMKDTSEYKMNTYIYAPKDDPYHRLSWKELYPEQEAKQIAELAKAGAENNFNFCWTIHPGATLQFTDEDFDALINKFEQLYSLGVRQFGVLFDDTDDWRNGQKQAEWINKIDTEFVKAKGDVAPMIVISARYNSAWGPNMDRYFKPFMQTLHDDIQVMWTGHATMSNVSKEVFEWPKVQTGVDKDVAVWWNYPVNDYCDSRILMAPLHNLNQDLDNVSGFFSNPMNQAEASKVALYSIADYTWNTDAFDYMKSWETSIEKFVPEVKEEFMRFASNTCYLKDDGGASGPFEYDESWYLSEKIDALKEAMKNGQSAVKPAKDLLEEFKLIVSDYESITSKVTNKNLLGEIEQHLNAYKALGEAGIAAMEAIIASEEGNLELWMNSNSLAQEKLDLMETFKIESLESDGPKEYVVSVGTKLLKPLVKESMDYAKEKMGEVVLPKYDPEINTSLTNLKDVEVNFEDGIYSLRDLGEVTLNNGDYVGISLPKATKLRGINLLANNYDNIEIQYSINGLDWVTAKASTNENVLETLDVVDATFIRIINIGENSKNINLEKLEVLPVYKAEPTITENIGTHENYTIDKALDGNMDTKYWSNKPSDSGHNIQIDLGNVMPLYDINTYFGANDFMRNSEYMISEDGVNWTSLGALAYNSQDGKMVASANAEGKMARYIKIQSNGHNYGCWVEIYEIEFNKTAPEFDESAVNLASGTLEGNFNAFYDEDLSTAYEAKSVKDGDSLIYKMSRVTNISELEILQDKNRISEAKVSVKDLGGNWTEIGHLNAQINKLKVDNNITEVKFEFEGSKPAPKIYEIIAREREEQEEIVVSPVKEFKATTINKKNVTVSWEEPENTFGLESYILYKDGKKVSEISSDETSYTFKGLNRHTIYNFKIAAKYSNGEISKKESLTIRTAR	failed
MNKKRTVDLIHGPILPSLLSFTFPILLSNIFQQLYNTADVLIVGRFLGQESLAAVGATTAIFDLIVGFTLGVGNGMGIVIARYYGARNFTKIKEAVAATWILGALLSILVMLLGFLGLYPLLQYLDTPAEILPQSYQYISMIVTCVGVSFAYNLFAGLLRSIGDSLAALGFLIFSALVNVVLDLYFITQLHLGVQSAGLATIISQGLSAVLCFYYIRKSVPELLPQFKHFKWDKSLYADLLEQGLAMGLMSSIVSIGSVILQFSVNTFGAVIISAQTAARRIMTFALLPMTAISASMTTFASQNLGAKRPDRIVQGLRIGSRLSISWAVFVCIFLFFASPALVSFLASSTDGYLIENGSLYLQISSTFYPILSLLLIYRNCLQGLGQKILPLVSSFIELIGKIVFVVLIIPWAGYKGVILCEPLIWVAMTVQLYFSLFRHPLIKEGKAILATKVQS	failed
MNKKTIGFFSGIAVFAIIYFLPIAGLSAKGQMDLALSLMTVVWWATQIAQPAFVGGIYLMLLIIMNVATPSQVFSSAWTGSIMWLVIGAYLIAGAVNESGLGQRIAYAFIIKFVRSWKGIVISIFALTFILALLIPHPWPRAFMIMSVITVVAETAKMPKRDLAKLGLAVFAASCPLSGVFYTGDTSLNPLAVQASGQSVNFVSYFIYMGVPMIIAAILTMFLFLFLFKPSQEVHIDVEALKQQQAQLGGMTGKEVRTIIWLIIAIALWLTSGITGLDVGWLTLIVALMMSLPVVGGILTAKSWEGVPVNVLVFLTSAIAIGNVGGVTGMNNWIAKTLIPSNLPTNIYLLAIVITVFAMIIHMFMGSVIAVMGITIPAFVAATAHMGISPLAVSLLVFSVTNLHYILPFHNLAVLVGSDPDTGGGYTQKDVMRLGIPLTAVVFVVALVEMFWFHLVGLA	failed
MNKLILISGLMLFSFFFGAGNLIFPPMLGYTAQENMWVSMTGFAITGILLPYITVIVVAYMNGGVESIGNKVHPIFGTVFAICIYLSIGALYGIPRAANVAYEIGTNHVLPVHNHFTLIIFSLIFFLVVYLIALYPNRIIDNLGKYLTPILIIIIAVLCILVIINPEGSIGQASGEYAQTPIVSGILEGYFTMDLVAALAFSVVIVQMFKMSGVNDHKTLVKNVIKSGLISAILLLIIYFALAYVGATTSHEGFKDGTGILTFNSLRVFGSIGNLLFGVIVILACLTTCIGLVNACAAFAMKKLPKISYKMFVLIFSLLGFLVSTLGLELILQIAVPLLTFIYPTSIVLVLISLVSIFIPFEMKYAFILPTLMTLFISLLQIFNDFNLFQPLISLYKVLPLSDIQLSWLLPFIILLFIGLIIDYFLKNKTVSTS	failed
MNKNQMLLGSFLCLLAVTAWGFMFPVMARALQFIDPFFFTTLRYGSAAIIFLILLLITEGKTSLRLEKRTLSLFFYGTVGFAGYGFLVFYGQQLAGPSGAIHAAMIQSLMPLIALSLQWITQNRRPQNYTFLCMFVALLGVMLVISKGNIELLFGAASHLSTNILMLCGVTCWVIYTNGAARFQSWSPLRYTTLTCLFGSISLIVIVTFLTYTNIVTMPSLRTVVSVRFELFYMSIIAGVIAVFCWNMGNRYISSINGILFMNLVPILALIGSIFRGYTVDKIEIAGAALTIIALLCNNLWQRKVNIKIPTSVR	failed
MNKRLFYYLFAVLCTVTLFTSCSDDDGDDTPTVIPIEQEIAGDYKGTMDVYYVGVPDPIASGLSQKVYVTKASDTAVKLELRDFVFFLGSEELNLGTIAVENCPVTVEGTSYKFSGNQKMTLLVGDCDVAVSGTIGSGNLAMIVDVKVGGGTLQVKVDYKGTKLAGTESTEAKILSFTFDKSVEANAVVFSEPIVNEEDGTIVFEVLKDVTTDDLKKLVPTIEVSAKATVTPASGATVDFSSNKAIFTVVAEDGSSKIYTASISGRAFVVSYDFEEWDPVTHKPMLGNEETFTTPTGWCTSNYGIVEMGMFKPMLGVSGWLVTEESEGHNGKSALLRTINSKGGVGGLIPTITTGSLFLGTWSTNAGNTLNSTKFGNQFNNSLGRPVAVKGWYKYESGKDFYTCESDATDKATIDVSKGEYADQYSIKVSLYTTEEYDETGFSDYLTGESGDNNFYTSSRVVAKGGVEGGSTDGQWKEFTITLDYGDAEFDINQKYRFAIVCSSSKEGDKFWGAPESKLWVDDIEVIYKK	failed
MNKRSIFSNWFITARPKTLPLALASIMVGSALANWVGQFDWVTNLLAIITTMLLQILSNFANDYGDYVKGSDTQERIGPLRAIQQGNITGEQLRQAVIFLSFLSFISGLVLTIYAYQSLQDLLVFVSLGVVSIIAAISYTVGKKAYGYLGLGDLFVLIFFGFVAVIGSFYLQAHSIPIIILLPAFACGLLSVAVLNINNLRDINQDRQAGKNTLIVRIGSDNGRIYHMLLLTLAVICYLIFAIIEGNHWYNYLFLLAVPLLVQHALFVYRYQEPIELRPMLGKMAALALLTNLLFSIGIMLG	failed

Reference: a protein production outcome set (Wang et al. 2014)
